B1: TPR t1 (parent)
chain: GACCAAUCUGCCCUCAGAGCUCGAGAACAUCUUCGGAUGCAGAGGAGGCAGGCUUCGGUGGCGCGAUAGCGCCAACGUCCUCAACCUCCAAUGCAUCCCACCACAUGAUGAUGCCUGAAGAGCCUUGGUUUUUUG

Variants of: B1
Assay: polymerase ribozyme fitness, log enrichment relative to wild type (log ratio); higher = more active; in vitro selection for triplet polymerase activity
Method in brief: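 PCR was used to build mutant libraries for each subunit of a heterodimeric triplet polymerase ribozyme, which were then transcribed. A single in vitro selection round, in triplicate, used a frozen incubation at −7 °C and recovered extended constructs by gel excision, streptavidin beads and RT-PCR. Fitness is the logarithm of genotype enrichment relative to wild-type enrichment, averaged over replicates with inverse-variance weights. The logarithm is base 2, and after Illumina sequencing only genotypes with ≥10 input reads and ≥1 read per output were kept.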

Row | Variant | polymerase ribozyme fitness (log ratio)
1 | G23A C70U | -4.99
2 | C70G C97U | -2.56
3 | A46U G61U A111G | -0.291
4 | G17U C124G G128C | -1.84
5 | G71A C86U | 0.0346
6 | U78C C115A | -0.63
7 | C79U C86U | -0.175
8 | A18G C72A | -2.98
9 | G110C C114U | -4.33
10 | G71U G93C G117C | -4.78
11 | G110U A111G G113C | -2.46
12 | C12G C53A G57U G60U C94U G107U | -6.32
13 | A26U U78A G110U G120C U133G | -7.89
14 | G71A A111C A118U | -0.257
15 | G10U C13U G48A G61A A83U C98U G117A | -2.09
16 | C34U U81C | -5.69
17 | C13A U21A G47U U109A | -5.74
18 | C11A C53U C76U C80G G117C | -7.25
19 | U87A G128U | -2.2
20 | G42A A43U U96A | -2.41
21 | U7G C70U A83U U131A | 0.0577
22 | U54C G77C C104U | -0.638
23 | C22A A27C C124A | -4.12
24 | U54C C97A | -5.83

Row | Variant | polymerase ribozyme fitness (log ratio)
25 | C64U U129G | -1.46
26 | C15A G42A C56A G69U A100C U132A | -4.53
27 | A6C U78C | -0.721
28 | C20G A90C C98U C124A U126A | -4.21
29 | A103U A119G | -4.5
30 | C13G U96C C101A | -3.35
31 | C73G A108C A118U C123G | -4.86
32 | C70U U81C C99A U112A U125C | -6.54
33 | U7A C20G G25C C34G A43C G52A G113C | -7.56
34 | C31U A37G G69U | -3.72
35 | A26U A74U C88A G93A C101U | -5.3
36 | C101A C102A A119U U130A | -5.43
37 | A46U A95G C115U G128A | -4.98
38 | G52C A83C A118G U131A | -0.732
39 | C8A C64U C104A G120A | 0.21
40 | A37U G44A C101A A111G | -1.68
41 | C12U A29G | -1.25
42 | C73G A100C | -1.47
43 | U59A U81A G107A C114U | -2.96
44 | C62U U109C | -4
45 | A6U C97A | -3.55
46 | G17C A26C A29G C62A G63U | -5.05
47 | A5G C72U | -0.625
48 | A43G C53A U78C C88U | -1.22

Row | Variant | polymerase ribozyme fitness (log ratio)
49 | C70A C72U C101A | -2.45
50 | G52C A100C C114A | -4.06
51 | G110A C124U | -0.567
52 | G71U G77U C89A | -2.84
53 | G52U C115A | -0.782
54 | A5U C11A G63U G93U | -3.79
55 | C40G G107A | -6.63
56 | C40G C72G | -1.56
57 | G58U U106C C124U U130A | -0.269
58 | C8A C15G C40A U54G A90G | -2.34
59 | A43U C88A | -1.18
60 | C20A C53A G57A C73U C79U C102A A121C | -4.43
61 | U7G C88G | -0.456
62 | C12A A26C C56U G69A C85A | -7.09
63 | C76U A121C | 2.01
64 | G45A G71U G120A U133A | -0.0049
65 | C53U C72G | -0.46
66 | C56A G69C | -3.89
67 | U38G G57U C62A A91U C97A G117A G120C | -7.34
68 | C76G A119U | -1.37
69 | U112C C124U G128U | -0.524
70 | C12A A43C G61U C123G | -0.577
71 | C64U C76G C85A | -3.38
72 | G128A | -1.65

Row | Variant | polymerase ribozyme fitness (log ratio)
73 | A5U A90G C123U | 0.65
74 | G35U C40U | -4.76
75 | A27U U116G | -5.63
76 | C70G A100C | -4.69
77 | C13U C62U A83C C89U | -0.547
78 | C20A A121U | -0.837
79 | A50C G69A G120A G127A | -3.94
80 | C62U C64U C102A U126G | -4.31
81 | C13A C79G C123A U129G | -3.45
82 | G57U G110A | -1.16
83 | C15U A26U | -5.06
84 | G77U U131G | -1.01
85 | U32C G48U C56A G71U | -3.98
86 | U7G C34U G58A | -5.02
87 | G44U C53A C56A A111C | -0.781
88 | G60A G120U A121C | 0.445
89 | A95U G113A G122A | -3.26
90 | C11G C79A G120C | 1.11
91 | C3U G45C G61A | 0.0995
92 | C8A C86A | 0.557
93 | U9G U32C G52C G110C | -5.7
94 | C20A G57A C72A U87A | -4.5
95 | C8G C76U G135A | -0.923
96 | U55C C79A | -2.08

Row | Variant | polymerase ribozyme fitness (log ratio)
97 | U9A A37U U81G | -2.86
98 | A41C U133G | -1.16
99 | C12U C20A C22G U112A | -3.37
100 | U9A C88U U92A | -2.44
101 | G69U U116C | 0.102
102 | C97A G120C | -4.1
103 | C20U C64A C98A G117U | -6.4
104 | A6C G93U A100U | -2.54
105 | C53G G69A C115A U116A | -5.69
106 | C64U A100U U130A | -1.02
107 | A37C C97U | -1.69
108 | A6U C8G G44C C64U U96C | -1.02
109 | C40U G61A | -0.522
110 | A37U A41U C79G | -4.3
111 | C53G G71A G93C | -1.51
112 | A27G A29G G45A C56G C73A A75G C104A G107A G117U | -6.73
113 | G48C G57U U96C | -0.888
114 | A27G C34A | -4.06
115 | C12U A41G | 0.638
116 | A27G C49G G61C G63U C89G G117C | -6.39
117 | A50U U81A C85G | -0.884
118 | C8G C99U | -2.82
119 | G51U A74C A121C | -0.422
120 | G61A C73U C76U | -3.66

Row | Variant | polymerase ribozyme fitness (log ratio)
121 | C62A C64U C114A A121U C123G | -4.48
122 | G10U C13A A41C G71A C85U | -3.61
123 | G71A C73G G110A | -7.06
124 | U7A A50U | -0.856
125 | C13U C79A A90C | -2.88
126 | A2U C73A U130A U133G | -2.47
127 | G51C | -3.7
128 | C56A C76A | -0.802
129 | A108G A111C | -1.58
130 | A27U A68G | -5.61
131 | G10U U14A C40A | -2.63
132 | U7A C12U A46U G58A | -0.311
133 | C79U U106A U116G | -2.6
134 | A50G C99U C115U G117C | -6.47
135 | G10C G48A C64U G117U U125G | -6.03
136 | G39U C70U U96G G113U | -7.29
137 | U14G A27U C94A | -5.54
138 | C62G C85A C102U A121U C124U | -4.13
139 | G57U G117A G135U | -2.73
140 | G69C C102U | -3.02
141 | C70U C104A | -2.32
142 | A84G A91U | -3.76
143 | C28G C94A | -4.49
144 | C15A A46U C76U C101U C115U | -4.21

Row | Variant | polymerase ribozyme fitness (log ratio)
145 | C8G A37C G48U C85A | 0.211
146 | A18U G44U | -2.49
147 | A24G C31U G60C U96G U106A G120C | -4
148 | C13U A16U G45U G60U A95U C97U | -2.68
149 | C28U C123A | -1.91
150 | A29G A91C | -1.57
151 | G44C C115G | -2.64
152 | C79U A95C G120A | -0.000389
153 | G45C A50C A121C | 0.0664
154 | C34U C64U C94G G113A | -7.42
155 | A6U C56G C76U C86A A90G | -1.7
156 | A5C G45U | -1.36
157 | A6C C8A C13G A43U G69C C88A | -2.92
158 | G63A C104U G120A G127A | -0.508
159 | G36A G42U C88A G113U | -3.82
160 | C99U U129G | -3.83
161 | U9A G69C G113C C115U | -4.52
162 | U9C C49U | 0.0306
163 | G58U G63A C94U | -0.678
164 | G17C G69U | -2.68
165 | C8U G48U A50U C86U U96A | -0.998
166 | G69C G110A | -2.04
167 | C22U A46U G69U G117A | -4.33

Reference: the RNAGym collection of RNA variant scans (doi:10.1073/pnas.2313332121)
